Key:
[1] = target: T1, human CD30 (human, UniProt P28908 19-595); assay: flow cytometry, HDLM-2 cells
T1 construct: also called huCD30; TNFRSF8
T1 sequence: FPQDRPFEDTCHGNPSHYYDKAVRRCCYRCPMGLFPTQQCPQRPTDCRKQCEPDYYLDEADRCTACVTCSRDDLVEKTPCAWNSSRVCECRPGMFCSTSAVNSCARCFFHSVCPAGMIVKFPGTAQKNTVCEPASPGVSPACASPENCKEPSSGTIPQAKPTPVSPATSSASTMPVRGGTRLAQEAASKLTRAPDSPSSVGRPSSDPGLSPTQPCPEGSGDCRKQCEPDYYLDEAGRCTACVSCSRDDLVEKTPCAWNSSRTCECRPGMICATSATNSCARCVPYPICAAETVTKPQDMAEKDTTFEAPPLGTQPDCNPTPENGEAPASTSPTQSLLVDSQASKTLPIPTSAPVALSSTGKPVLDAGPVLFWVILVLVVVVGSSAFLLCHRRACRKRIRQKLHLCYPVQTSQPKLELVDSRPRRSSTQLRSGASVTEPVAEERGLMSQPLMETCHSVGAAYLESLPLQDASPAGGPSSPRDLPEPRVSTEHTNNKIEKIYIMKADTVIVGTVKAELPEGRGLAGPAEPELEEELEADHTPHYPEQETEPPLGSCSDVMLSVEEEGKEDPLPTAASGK
Method in brief: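 CD3×CD30 bispecific antibodies, serially diluted 3-fold from 10 to 0.0046 μg/mL, were incubated with 3×10⁴ cells/well at 4° C for 30 min, then with a secondary antibody at 4° C for 30 min. Live cells were gated by FSC/SSC and TO-PRO-3 exclusion, and curves were fitted by four-parameter sigmoidal regression.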

[2] = target: T2, cynomolgus monkey (Macaca fascicularis) CD30 (cynomolgus monkey, UniProt P28908 19-595 (human entry)); assay: flow cytometry, Expi293F cells transfected with cynomolgus monkey CD30 (mfCD30)
T2 construct: also called mfCD30
T2 chain: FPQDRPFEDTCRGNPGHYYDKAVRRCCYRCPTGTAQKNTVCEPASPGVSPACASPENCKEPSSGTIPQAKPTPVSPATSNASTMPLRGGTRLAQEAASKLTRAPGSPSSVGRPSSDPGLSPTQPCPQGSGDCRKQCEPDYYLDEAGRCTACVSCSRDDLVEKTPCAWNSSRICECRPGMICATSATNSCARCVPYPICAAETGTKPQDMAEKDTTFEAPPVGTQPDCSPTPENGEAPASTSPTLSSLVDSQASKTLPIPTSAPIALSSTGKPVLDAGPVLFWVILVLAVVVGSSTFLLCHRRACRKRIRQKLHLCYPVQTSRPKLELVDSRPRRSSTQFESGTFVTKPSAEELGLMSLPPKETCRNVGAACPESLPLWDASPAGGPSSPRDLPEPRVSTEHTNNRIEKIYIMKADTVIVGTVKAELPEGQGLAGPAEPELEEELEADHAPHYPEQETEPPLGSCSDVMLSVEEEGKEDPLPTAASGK
Method: Cells (3×10⁴ cells/well) were incubated in polystyrene 96-well round-bottom plates (Greiner bio-one, cat. no. 650180) with serial dilutions of antibodies (ranging from 0.005 to 10 μg/mL in 3-fold dilution steps) in 100 μL staining buffer at 4° C. for 30 min. Experiments were performed in technical duplicate. After washing twice in staining buffer, cells were incubated in 50 μL secondary antibody at 4° C. for 30 min. As a secondary antibody, R-PE-conjugated goat-anti-human IgG (Jackson ImmunoResearch, UK; cat. no. 109⁻¹¹⁶-098) diluted 1:400 in staining buffer was used. Cells were washed twice in staining buffer, resuspended in 30 μL staining buffer containing 0.4% EDTA and analyzed on an iQue Screener (Intellicyt Corporation, USA). Binding curves were analyzed using non-linear regression (sigmoidal dose-response with variable slope) using GraphPad Prism V9.0.0 software (GraphPad Software, San Diego, CA, USA).

[3] = target: T3, human CD3 (human, UniProt P07766 23-207); assay: flow cytometry, primary human T cells
T3 construct: CD3 endogenously expressed on primary human T cells (whole TCR/CD3 complex); also called human CD3 (epsilon)
T3 sequence (P07766 23-207 limits assumed): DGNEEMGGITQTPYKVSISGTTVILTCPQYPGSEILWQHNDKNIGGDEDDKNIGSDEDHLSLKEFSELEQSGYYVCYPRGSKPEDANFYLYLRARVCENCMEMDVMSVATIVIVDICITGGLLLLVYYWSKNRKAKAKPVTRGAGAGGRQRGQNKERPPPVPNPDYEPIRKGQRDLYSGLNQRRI
Method: Cynomolgus monkey PBMCs (Tebu-Bio, The Netherlands; cat. no. PBMCMFA-10) or purified human T cells were plated in polystyrene 96-well round-bottom plates. T cells were derived from human donor buffy coats (Sanquin, Amsterdam, The Netherlands) and isolated using the RosetteSep human T cell enrichment cocktail (Stemcell Technologies, France, cat. no. 15061) according to manufacturer's instructions. […] After washing twice in staining buffer, cells were incubated in 50 μL secondary R-PE-conjugated goat-anti-human IgG antibody at 4° C. for 30 min (1:400 dilution). After washing twice in staining buffer, T cells were stained for T-cell markers CD3 (1:100; Miltenyi biotec, clone 10D12, conjugated to APC), CD4 (1:50; eBioscience, clone OKT4, conjugated to APC-Cy7), CD8 (1:100; Biolegend, clone RPA-T8, conjugated to AF700) and T-cell activation markers CD69 (1:50; BD Biosciences, clone AB2439, conjugated to FITC), CD25 (1:50; eBioscience, clone BC96, conjugated to PE-Cy7) and CD279/PD1 (1:50; BD Biosciences, clone AEH12.2H7, conjugated to BV605). Single stained samples with Ultracomp beads (5 μL; Invitrogen, cat. no. 01-2222-42) were used for compensation adjustments of the flow cytometer. After 30 min of incubation at 4° C., cells were washed twice with staining buffer, resuspended in 100 μL staining buffer and analyzed using a FACS Fortessa (BD Biosciences). […]

[4] = target: T4, cynomolgus monkey CD3 (cynomolgus monkey, UniProt Q95LI5 22-198); assay: flow cytometry, cynomolgus monkey T cells (PBMCs)
T4 construct: CD3 endogenously expressed on T cells within cynomolgus monkey PBMCs
T4 sequence (Q95LI5 22-198): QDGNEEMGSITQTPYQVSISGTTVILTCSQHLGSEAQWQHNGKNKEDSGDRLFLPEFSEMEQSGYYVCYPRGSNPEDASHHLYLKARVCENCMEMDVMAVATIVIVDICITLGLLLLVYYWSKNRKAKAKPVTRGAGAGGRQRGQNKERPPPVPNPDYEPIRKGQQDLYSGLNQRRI
Method: Cynomolgus monkey PBMCs (Tebu-Bio, The Netherlands; cat. no. PBMCMFA-10) or purified human T cells were plated in polystyrene 96-well round-bottom plates. T cells were derived from human donor buffy coats (Sanquin, Amsterdam, The Netherlands) and isolated using the RosetteSep human T cell enrichment cocktail (Stemcell Technologies, France, cat. no. 15061) according to manufacturer's instructions. […] After washing twice in staining buffer, cells were incubated in 50 μL secondary R-PE-conjugated goat-anti-human IgG antibody at 4° C. for 30 min (1:400 dilution). After washing twice in staining buffer, T cells were stained for T-cell markers CD3 (1:100; Miltenyi biotec, clone 10D12, conjugated to APC), CD4 (1:50; eBioscience, clone OKT4, conjugated to APC-Cy7), CD8 (1:100; Biolegend, clone RPA-T8, conjugated to AF700) and T-cell activation markers CD69 (1:50; BD Biosciences, clone AB2439, conjugated to FITC), CD25 (1:50; eBioscience, clone BC96, conjugated to PE-Cy7) and CD279/PD1 (1:50; BD Biosciences, clone AEH12.2H7, conjugated to BV605). Single stained samples with Ultracomp beads (5 μL; Invitrogen, cat. no. 01-2222-42) were used for compensation adjustments of the flow cytometer. After 30 min of incubation at 4° C., cells were washed twice with staining buffer, resuspended in 100 μL staining buffer and analyzed using a FACS Fortessa (BD Biosciences). Data were processed using FlowJo (BD Biosciences).

EC50 (read off the curve) [1]: ~0.2 µg/mL
binding result [2]: binds
binding result [3]: no binding (tested: 10 ug/mL)
binding result [4]: no binding (tested: 10 ug/mL)
B1: IgG1-CD30-MDX060-FEAR (antibody)
heavy: QVQLQQWGAGLLKPSETLSLTCAVYGGSFSAYYWSWIRQPPGKGLEWIGDINHGGGTNYNPSLKSRVTISVDTSKNQFSLKLNSVTAADTAVYYCASLTAYWGQGSLVTVSSASTKGPSVFPLAPSSKSTSGGTAALGCLVKDYFPEPVTVSWNSGALTSGVHTFPAVLQSSGLYSLSSVVTVPSSSLGTQTYICNVNHKPSNTKVDKRVEPKSCDKTHTCPPCPAPEFEGGPSVFLFPPKPKDTLMISRTPEVTCVVVAVSHEDPEVKFNWYVDGVEVHNAKTKPREEQYNSTYRVVSVLTVLHQDWLNGKEYKCKVSNKALPAPIEKTISKAKGQPREPQVYTLPPSREEMTKNQVSLTCLVKGFYPSDIAVEWESNGQPENNYKTTPPVLDSDGSFFLYSRLTVDKSRWQQGNVFSCSVMHEALHNHYTQKSLSLSPG
light: DIQMTQSPTSLSASVGDRVTITCRASQGISSWLTWYQQKPEKAPKSLIYAASSLQSGVPSRFSGSGSGTDFTLTISSLQPEDFATYYCQQYDSYPITFGQGTRLEIKRTVAAPSVFIFPPSDEQLKSGTASVVCLLNNFYPREAKVQWKVDNALQSGNSQESVTEQDSKDSTYSLSSTLTLSKADYEKHKVYACEVTHQGLSSPVTKSFNRGEC
notes: Monospecific, bivalent parental antibody; also called IgG1-MDX060-FEAR

From patent publication US20260234255A1 (Genmab, published 2026)
